B1: TRX2 ScFv: anti-CD8 TRX2 ScFv, SEQ ID NO: 98 (protein)
scFv: QVQLVESGGGVVQPGRSLRLSCAASGFTFSDFGMNWVRQAPGKGLEWVALIYYDGSNKFYADSVKGRFTISRDNSKNTLYLQMNSLRAEDTAVYYCAKPHYDGYYHFFDSWGQGTLVTVSSGGGGSGGGGSGGGGSGGGGSDIQMTQSPSSLSASVGDRVTITCKGSQDINNYLAWYQQKPGKAPKLLIYNTDILHTGVPSRFSGSGSGTDFTFTISSLQPEDIATYYCYQYNNGYTFGQGTKVEIKGGGSGGCGGHHHHHH
B2: 12D2: anti-CD3 12D2 bDS Fab, SEQ ID NO: 84 and 85 (antibody)
heavy: EVKLVESGGGLVQPGRSLRLSCAASGFNFYAYWMGWVRQAPGKGLEWIGEIKKDGTTINYTPSLKDRFTISRDNAQNTLYLQMTKLGSEDTALYYCAREERDGYFDYWGQGVMVTVSSASTKGPSVFPLAPSSKSTSGGTAALGCLVKDYFPEPVTVSWNSGALTSGVHTCPAVLQSSGLYSLSSVVTVPSSSLGTQTYICNVNHKPSNTKVDKKVEPKSSDKTHTCGGHHHHHH
light: QFVLTQPNSVSTNLGSTVKLSCKRSTGNIGSNYVNWYQQHEGRSPTTMIYRDDKRPDGVPDRFSGSIDRSSNSALLTINNVQTEDEADYFCQSYSSGIVFGGGTKLTVLSQPKAAPSVTLFPPSSEELQANKATLVCLVSDFYPGAVTVAWKADGSPVKVGVETTKPSKQSNNKYAACSYLSLTPEQWKSHRSYSCRVTHEGSTVEKTVAPAESS
B3: V1: anti-CD7 Nanobody, SEQ ID NO: 80 (protein)
VHH: DVQLQESGGGLVQAGGSLRLSCAVSGYPYSSYCMGWFRQAPGKEREGVAAIDSDGRTRYADSVKGRFTISQDNAKNTLYLQMNRMKPEDTAMYYCAARFGPMGCVDLSTLSFGHWGQGTQVTVSITGGGCHHHHHHHH
B4: OKT4: anti-CD4 humanized OKT4 bDS Fab, SEQ ID NO: 74 and 75 (antibody)
heavy: EVQLVESGGGLVQPGGSLRLSCAASGFTFSNYAMSWVRQAPGKRLEWVSAISDHSTNTYYPDSVKGRFTISRDNAKNTLYLQMNSLRAEDTAVYYCARKYGGDYDPFDYWGQGTLVTVSSASTKGPSVFPLAPSSKSTSGGTAALGCLVKDYFPEPVTVSWNSGALTSGVHTCPAVLQSSGLYSLSSVVTVPSSSLGTQTYICNVNHKPSNTKVDKKVEPKSSDKTHTCHHHHHH
light: DIQMTQSPSSLSASVGDRVTITCQASQDINNYIAWYQHKPGKGPKLLIHYTSTLQPGIPSRFSGSGSGRDYTLTISSLQPEDFATYYCLQYDNLLFTFGGGTKVEIKRTVAAPSVFIFPPSDEQLKSGTASVVCLLNNFYPREAKVQWKVDNALQSGNSQESVTEQDSKDSTYSLCSTLTLSKADYEKHKVYACEVTHQGLSSPVTKSFNRGES

This test has as its system human CD3 T cells. Kind of test: Transfection of human CD3 T cells (CD8 and CD4 subsets) with Fab/Nb-targeted LNPs. It is filed as cell-based. Conditions: targeted Lipid 8 LNP (Lipid 5 in Example 43), GFP mRNA approximately 2.5 μg/mL, approximately 24 hr. On the procedure: LNPs were prepared using the mixing process described in Example 6, the buffer exchange process described below in Example 21. Using methods similar to Example 12, hSP34 and TRX2 Fab-lipid conjugates and a non-T cell specific anti-HER2 lipid-conjugate (Nellis D F, Ekstrom D L, Kirpotin D B, Zhu J, Andersson R, Broadt T L, Ouellette T F, Perkins S C, Roach J M, Drummond D C, Hong K, Marks J D, Park J W and Giardina S L (2005) Preclinical manufacture of an anti-HER2 scFv-PEG-DSPE, liposome-inserting conjugate. 1. Gram-scale production and purification. Biotechnol Prog 21:205-220) were post-inserted at various densities (SP34 0.25-17 g/mol; TRX2 0.25-9 g/mol; SP34+TRX2 0.25-9 g/mol each conjugate; anti-HER2 17 g/mol) into LNPs containing Lipid 8 and anti-CD20 targeting CART mRNA. Transfections were performed with human CD3 T cells at approximately 2.5 μg/mL mRNA for approximately 24 hr. For FACS analysis T cells were stained with M1 antibody (Sigma, F3040) that bind a N-terminus FLAG-tag variant sequence on the TTR-023 CAR (sequence provided below) in addition to staining for CD69 (Biolegend, 310930) and CD4 (Biolegend, 344648) to differentiate CD8 from CD4 cells.
LNPs were prepared using the mixing process described in Example 6, the buffer exchange process described in Example 21. Using methods similar to Example 12, hSP34, TRX2, and Ibalizumab Fab-lipid conjugates and a non-T cell specific anti-HER2 lipid-conjugate were post-inserted at various densities (specified in FIGS. 20A and 20B into LNPs containing Lipid 8 and Cy5/GFP mRNA. Transfections were performed with human CD3 T cells at approximately 2.5 μg/mL mRNA for approximately 24 hr and stained for CD69 (Biolegend, 310930) and CD4 (Biolegend, 344648) to differentiate CD8 from CD4 cells by FACS analysis.
LNPs were prepared using the mixing process described in Example 6, the buffer exchange process described in Example 21. Conjugates were generated using a method similar to that of Example 4 except 0.025, 0.1, 0.5 mM TCEP was used for hSP34 DS, 0.025, 0.2, 2 mM TCEP was used for hSP34-hlam NoDS (interchain disulfide knockout) for reduction prior to conjugation and the conjugation reactions were performed at 37 C for 2 hr. SDS-PAGE (FIGS. 65A, 65B) was performed using the manufacturers recommended conditions with 1 ug of protein (Thermo, 4-12% Bis-Tris MiniGel). RP-HPLC (FIGS. 65C, 65D) was performed using an Agilent 300 SB-C8 at 0.5 mL/min with a column temperature of 60° C., Mobile Phase A: Water with 0.1% TFA, Mobile Phase B: Acetonitrile with 0.1% TFA, Gradient % B: 0 min 5%, 1 min 5%, 6.5 min 95%, 8 min 95% injecting 10 ul with a target of 1-25 ug of protein. Using methods similar to Example 12, ant-CD3 hSP34 (with and without natural interchain disulfide, DS (with interchain disulfide) vs. NoDS (without interchain disulfide), see sequences below) PEG-lipid conjugated Fabs were post-inserted at various Fab densities (6, 12, 17 g Fab/mol total lipid) into LNPs containing Lipid 8 and Cy5/GFP mRNA. Transfections were performed with human CD3 T cells at approximately 2.5 μg/mL mRNA for approximately 24 hr. Levels of transfection of CD3 T cells was measured by flow cytometry.
LNPs were prepared using the mixing process described in Example 6, the buffer exchange process described in Example 21. Conjugates were generated using a method similar to that of Example 4 except 0.1 mM TCEP was used for reduction prior to conjugation and the conjugation reaction was performed at 37 C for 2 hr. […]
Regarding B1, the “% GFP transfection and GFP expression (MFI) of CD8 and CD4 T cells, in words” value (from here on “% GFP transfection and GFP expression”) was “slightly lower % transfection (FIG. 82A) and GFP expression levels (FIG. 82B) in the CD8 T cell subset relative to the anti-CD8 TRX2 NoDS Fab”.

Take B2: the “% GFP transfection and GFP expression” value is “can efficiently transfect both CD8 and CD4 T cell subsets”.

As for B3, the “% GFP transfection and GFP expression” value was 3.4K PEG mediated higher transfection and expression than the 5K PEG.

In the case of B4, the “% GFP transfection and GFP expression” value was “highly specific LNP transfection and protein translation of CD4+ T cells versus CD8+ T cells”.

Values taken from patent publication US20220218614A1, “IONIZABLE CATIONIC LIPIDS AND LIPID NANOPARTICLES, AND METHODS OF SYNTHESIS AND USE THEREOF” (Tidal Therapeutics, Inc., priority 2020, published 2022).
